Where “and” joins values, the source holds several entries; their conditions need not be identical. Equal entries are not always repeated.
Substrate: O=C(O)CCC(=O)C(=O)O
Assay: purified protein, by the assay type
Conditions: pH 7.5, 25.0 °C

B1: KDM5B (Homo sapiens) (protein)
chain: MEAATTLHPGPRPALPLGGPGPLGEFLPPPECPVFEPSWEEFADPFAFIHKIRPIAEQTGICKVRPPPDWQPPFACDVDKLHFTPRIQRLNELEAQTRVKLNFLDQIAKYWELQGSTLKIPHVERKILDLFQLNKLVAEEGGFAVVCKDRKWTKIATKMGFAPGKAVGSHIRGHYERILNPYNLFLSGDSLRCLQKPNLTTDTKDKEYKPHDIPQRQSVQPSETCPPARRAKRMRAEAMNIKIEPEETTEARTHNLRRRMGCPTPKCENEKEMKSSIKQEPIERKDYIVENEKEKPKSRSKKATNAVDLYVCLLCGSGNDEDRLLLCDGCDDSYHTFCLIPPLHDVPKGDWRCPKCLAQECSKPQEAFGFEQAARDYTLRTFGEMADAFKSDYFNMPVHMVPTELVEKEFWRLVSTIEEDVTVEYGADIASKEFGSGFPVRDGKIKLSPEEEEYLDSGWNLNNMPVMEQSVLAHITADICGMKLPWLYVGMCFSSFCWHIEDHWSYSINYLHWGEPKTWYGVPGYAAEQLENVMKKLAPELFVSQPDLLHQLVTIMNPNTLMTHEVPVYRTNQCAGEFVITFPRAYHSGFNQGFNFAEAVNFCTVDWLPLGRQCVEHYRLLHRYCVFSHDEMICKMASKADVLDVVVASTVQKDMAIMIEDEKALRETVRKLGVIDSERMDFELLPDDERQCVKCKTTCFMSAISCSCKPGLLVCLHHVKELCSCPPYKYKLRYRYTLDDLYPMMNALKLRAESYNEWALNVNEALEAKINKKKSLVSFKALIEESEMKKFPDNDLLRHLRLVTQDAEKCASVAQQLLNGKR
Km (other: 0 μM oxaloacetate): 5.0 µM
Km (other: 0 μM succinate): 3.4 µM
Km (other: KDM5B(1–822), no inhibitor, 5 μM H3K4me2(1–21)): 3 µM and 2.6 ± 0.6 µM
Km (other: Table S1, succinate data set, competitive inhibition model): 3.01 µM
Km (other: Table S2, oxaloacetate data set, competitive inhibition model): 5.91 µM

From paper PMC5636616, “Studies on the Interaction of the Histone Demethylase KDM5B with Tricarboxylic Acid Cycle Intermediates” (Journal of Molecular Biology, 2017)
